According to patent US20210284734A1 (SYMPHOGEN A S, published 2021):
Like-named read-outs stand apart in the source and are kept apart here. Each block holds one binder with its values, some of them ahead of it.

Legend:
[1] = biological target: T1, His-tagged mouse PD-1 ECD (mouse (Mus musculus), UniProt Q02242 25-169); test: SPR, IgG captured, monovalent PD-1 ECD analyte
T1 construct: bought from Sino Biologicals; not shown: His tag
T1 sequence: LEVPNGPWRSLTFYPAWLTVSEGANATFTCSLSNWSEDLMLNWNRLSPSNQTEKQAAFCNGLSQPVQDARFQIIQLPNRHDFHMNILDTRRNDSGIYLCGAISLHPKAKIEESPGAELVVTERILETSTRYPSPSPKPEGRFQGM

[2] = biological target: T2, R-PE labeled human PD-L1-Fc chimera protein (human, UniProt Q9NZQ7 19-239, conjugated to R-phycoerythrin (R-PE)); test: flow cytometry, PD-1-transfected CHO-S cells; R-PE PD-L1-Fc 16.4 nM in the presence of the negative control ramucirumab 10 ug/ml
T2 construct: bought from R&D Systems; not shown: Fc of the commercial chimera

[3] = biological target: T3, His-tagged human PD-1 ECD (human, UniProt Q15116 25-170); test: SPR, IgG captured, monovalent PD-1 ECD analyte
T3 construct: bought from Acro Biosystems; not shown: His tag

[4] = biological target: T1, His-tagged mouse PD-1 ECD; test: SPR, IgG captured, monovalent PD-1 ECD analyte; remark: listed apart in the source
Experimental: (§1) The lowest possible anti-PD-1 antibody density was applied to prevent non-specific binding and mass transport limitation. For measuring antibody kinetics, anti-PD-1 antibodies were adjusted to a concentration of 1.0 μg/ml and captured on anti-human IgG Fc surfaces generated by immobilizing approximately 1000 RU of a monoclonal anti-human Fc antibody (Biacore, Denmark). […] The recorded binding responses were fitted to a simple Langmuir 1:1 binding model for calculation of the on-rate (kₒₙ or ka), off-rate (koff or kd) and affinity (KD) constants using double referencing.
His-tagged mouse and rat PD-1 ECD were purchased from Sino Biologicals.

[5] = biological target: T3, His-tagged human PD-1 ECD; test: SPR, IgG captured, monovalent PD-1 ECD analyte; remark: listed apart in the source
Experimental: Kinetic binding analysis of the purified anti-PD-1 antibody repertoire was performed on an XPR-36 surface plasmon resonance (SPR) biosensor (Bio-Rad, USA).
as §1

[6] = biological target: T4, His-tagged cynomolgus PD-1 ECD (cynomolgus (Macaca fascicularis), UniProt Q15116 25-170 (human entry)); test: SPR, IgG captured, monovalent PD-1 ECD analyte
T4 construct: bought from Acro Biosystems; not shown: His tag
T4 chain: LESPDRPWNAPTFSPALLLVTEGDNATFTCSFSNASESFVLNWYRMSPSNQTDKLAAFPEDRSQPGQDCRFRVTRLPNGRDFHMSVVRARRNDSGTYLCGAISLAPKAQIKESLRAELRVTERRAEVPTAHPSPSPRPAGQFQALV

T3 sequence (Q15116 25-170): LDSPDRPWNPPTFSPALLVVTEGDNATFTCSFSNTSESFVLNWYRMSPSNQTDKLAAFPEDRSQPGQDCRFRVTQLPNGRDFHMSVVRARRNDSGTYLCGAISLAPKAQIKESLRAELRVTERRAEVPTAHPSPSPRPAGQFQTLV
T2 sequence (Q9NZQ7 19-239, change not shown): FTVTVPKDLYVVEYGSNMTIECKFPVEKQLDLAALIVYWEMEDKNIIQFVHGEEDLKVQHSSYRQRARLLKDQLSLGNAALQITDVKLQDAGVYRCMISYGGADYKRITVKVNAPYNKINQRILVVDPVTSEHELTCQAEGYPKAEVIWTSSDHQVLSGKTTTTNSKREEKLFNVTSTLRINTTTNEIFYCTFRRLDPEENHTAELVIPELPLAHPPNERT

binding result [1]: no binding
B1: 12865.17150 (antibody, human IgG1, lambda, L234A L235A, V domains shown)
VH: EVQLLESGGGLVQPGGSLRLSCAASGFDFSDHGMQWVRQAPGKGLEYVGVIDTTGRYTYYAPAVKGRATISRDNSKNTLYLQMNSLRAEDTAVYYCAKTTCVGGYLCNTVGSIDAWGQGTLVTVSS
VL: SYELTQDPAVSVALGQTVRITCSGGGSSSYYGWYQQKPGQAPVTVIYDDTNRPSGIPDRFSGSSSGNTASLTITGAQAEDEADYYCGGYEGSSHAGIFGSGTKVTVLG

binding result [2]: binds
B2: cyno PD1 (receptor)
receptor: LESPDRPWNAPTFSPALLLVTEGDNATFTCSFSNASESFVLNWYRMSPSNQTDKLAAFPEDRSQPGQDCRFRVTRLPNGRDFHMSVVRARRNDSGTYLCGAISLAPKAQIKESLRAELRVTERRAEVPTAHPSPSPRPAGQFQALVVGVVGGLLGSLVLLVWVLAVICSRAAQGTIEARRTGQPLKEDPSAVPVFSVDYGELDFQWREKTPEPPAPCVPEQTEYATIVFPSGLGTSSPARRGSADGPRSPRPLRPEDGHCSWPL
notes: also called cynomolgus PD-1 expressed on CFSE-stained CHO-S cells

Kd [3]: 0.028 nM | koff [3]: 8.85e-06 s⁻¹ | kon [3]: 326000 M⁻¹ s⁻¹ | Kd [4]: 0.809 nM | koff [4]: 3.04e-05 s⁻¹ | kon [4]: 37100 M⁻¹ s⁻¹ | Kd [5]: 0.02 nM | koff [5]: 2.3e-05 s⁻¹ | kon [5]: 1.1e+06 M⁻¹ s⁻¹ | Kd [6]: 0.005 nM | koff [6]: 4.5e-06 s⁻¹ | kon [6]: 970000 M⁻¹ s⁻¹
B3: 12819.15384 (antibody, human IgG1, lambda, L234A L235A)
heavy: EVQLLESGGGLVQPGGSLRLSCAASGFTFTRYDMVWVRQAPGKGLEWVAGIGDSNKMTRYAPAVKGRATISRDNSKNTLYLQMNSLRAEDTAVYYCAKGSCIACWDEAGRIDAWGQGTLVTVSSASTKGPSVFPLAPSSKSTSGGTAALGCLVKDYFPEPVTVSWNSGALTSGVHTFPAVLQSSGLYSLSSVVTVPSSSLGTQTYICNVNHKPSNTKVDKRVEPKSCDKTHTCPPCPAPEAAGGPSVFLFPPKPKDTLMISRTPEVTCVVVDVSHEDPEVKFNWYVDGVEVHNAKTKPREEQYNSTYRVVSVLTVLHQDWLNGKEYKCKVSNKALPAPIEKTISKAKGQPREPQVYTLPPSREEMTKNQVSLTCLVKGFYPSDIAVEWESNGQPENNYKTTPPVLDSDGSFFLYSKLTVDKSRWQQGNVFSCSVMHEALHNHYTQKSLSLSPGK
light: SYELTQDPAVSVALGQTVRITCSGGGSYDGSSYYGWYQQKPGQAPVTVIYNNNNRPSDIPDRFSGSSSGNTASLTITGAQAEDEADYYCGSYDRPETNSDYVGMFGSGTKVTVLGQPKANPTVTLFPPSSEELQANKATLVCLISDFYPGAVTVAWKADGSPVKAGVETTKPSKQSNNKYAASSYLSLTPEQWKSHRSYSCQVTHEGSTVEKTVAPTECS
notes: humanized, IgG1 LALA, lambda
